US20020102257A1 (published 2002)

B1: humanized 1308F antibody (CDR-grafted MAb 1308F, human HV3 VH / K102 VL frameworks, human IgG1 kappa) (antibody, V domains shown)
VH: QVQLVQSGAEVKKPGASVKVSCKASGFNIKDYYIYWVRQAPGQGLEWIGWIDPENGNTVFDPKFNGRVTMTRDTSTSTVYMELSSLRSEDTAVYYCAYYGTSSFDFWGQGTTLTVSS
VL: DIQMTQSPSTLSASVGDRVTITCKASQDINRYLNWYQQKPGKAPKLLIYRANRLVDGVPSRFSGSGSGTEFTLTISSLQPDDFATYYCLQFHEFPYTFGGGTKLEIL
B2: humanized 1129 antibody (CDR-grafted MAb 1129, human COR VH / K102 VL frameworks, human IgG1 kappa) (antibody, V domains shown)
VH: QVTLRESGPALVKPTQTLTLTCTFSGFSLSTSGMSVGWIRQPPGKALEWLADIWWDDKKDYNPSLKSRLTISKDTSKNQVVLKVTNMDPADTATYYCARSMITNWYFDVWGAGTTVTVSS
VL: DIQMTQSPSTLSASVGDRVTITCKCQLSVGYMHWYQQKPGKAPKLWIYDTSKLASGVPSRFSGSGSGTEFTLTISSLQPDDFATYYCFQGSGYPFTFGGGTKLEIK
B3: murine monoclonal antibody MAb 1308F (antibody, V domains shown)
VH: EVQKQQSGAELVRPGALVKLSCKASGFNIKDYYIYWVKQRPEQGLEWIGWIDPENGNTVFDPLFQGKASITSDTSSNTAYLQLSSLTSEDTAVYYCAYYGTSSFDFWGQGTTLTVSS
VL: DIKMTQSPSSMYVSLGERVTITCKASQDINRYLNWFQQKPGKSPKTLIHRANRLVDGVPSRFSGSGSGQEYSLTISSLEFEDMGIYYCLQFHEFPYTFGGGTKLEIL

How the values were obtained:
[1] = target: RSV F protein, C-terminal truncated, secreted from recombinant baculovirus (respiratory syncytial virus) (UniProt P03420); test: SPR (BIAcore), F protein amine-coupled, Mab injected 25-300 nM
[2] = target: RSV F protein, C-terminal truncated, secreted from recombinant baculovirus (respiratory syncytial virus) (UniProt P03420); test: SPR (BIAcore), F protein amine-coupled, Kd = kd/ka
[3] = target: T1, RSV F protein, C-terminal truncated, secreted from recombinant baculovirus (respiratory syncytial virus, UniProt P03420 26-524); test: SPR (BIAcore), F protein amine-coupled, Mab injected 25-300 nM
T1 construct: also called RSV F glycoprotein; RSV F antigen

Molecule | koff [1] [s⁻¹] | kon [1] [M⁻¹ s⁻¹] | t1/2 [1] [h] | Kd [2] [nM] | t1/2 [3] [h]
chimeric 1129 antibody (murine 1129 VH and VL joined to human C-gamma 1 and C-kappa) | 7.5e-05 | 50000 | 2.6 | 1.5 | –
murine monoclonal antibody MAb 1129 | – | 35000 | 0.48 | 11.4 | –
B1 | – | – | – | – | 3.5
B2 | – | – | – | – | 2.8
B3 | – | – | – | – | 5.1
